From PMC4973710

Biological target: CPR-DA: human cytochrome P450 reductase doubly labelled with Cy5 (donor) and Alexa 750 (acceptor) (human) (UniProt P16435)
UniProt P16435, sequence (P16435 61-677): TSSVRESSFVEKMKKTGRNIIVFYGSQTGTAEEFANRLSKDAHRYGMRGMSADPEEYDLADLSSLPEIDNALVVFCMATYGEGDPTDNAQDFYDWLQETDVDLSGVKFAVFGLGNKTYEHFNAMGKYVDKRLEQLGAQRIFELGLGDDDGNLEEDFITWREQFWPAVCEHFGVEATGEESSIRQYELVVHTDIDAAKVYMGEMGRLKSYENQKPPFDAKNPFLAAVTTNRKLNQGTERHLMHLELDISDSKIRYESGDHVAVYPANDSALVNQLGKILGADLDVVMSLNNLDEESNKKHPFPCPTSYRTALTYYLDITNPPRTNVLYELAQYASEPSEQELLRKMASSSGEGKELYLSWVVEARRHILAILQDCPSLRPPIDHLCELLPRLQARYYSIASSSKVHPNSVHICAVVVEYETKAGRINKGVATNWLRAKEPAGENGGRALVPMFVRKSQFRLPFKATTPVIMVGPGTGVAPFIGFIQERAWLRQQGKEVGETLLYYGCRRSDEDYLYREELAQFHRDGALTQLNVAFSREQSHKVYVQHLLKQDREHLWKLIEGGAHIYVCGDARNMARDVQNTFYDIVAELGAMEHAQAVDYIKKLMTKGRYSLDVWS

Work on “bovine heart cytochrome c (from UniProt P62894 1-105) (natural protein)” yielded a second-order rate constant of ferric cyt c reduction by equimolar NADPH-reduced CPR-DA, first kinetic phase (UV-Vis double-mixing stopped-flow) of 1.01 µM⁻¹ s⁻¹ and a second-order rate constant of ferric cyt c reduction by equimolar NADPH-reduced CPR-DA, second kinetic phase (UV-Vis double-mixing stopped-flow) of 0.34 µM⁻¹ s⁻¹.
